Values quoted from earlier work, collected in paper PMC8909277.

Assays:
claudin-9 (Homo sapiens) = claudin-9 (Homo sapiens) (UniProt O95484); assay: BLI
claudin-4 (Homo sapiens) = claudin-4 (Homo sapiens) (UniProt O14493); assay: SPR
Sequence of UniProt O14493 (O14493 whole entry): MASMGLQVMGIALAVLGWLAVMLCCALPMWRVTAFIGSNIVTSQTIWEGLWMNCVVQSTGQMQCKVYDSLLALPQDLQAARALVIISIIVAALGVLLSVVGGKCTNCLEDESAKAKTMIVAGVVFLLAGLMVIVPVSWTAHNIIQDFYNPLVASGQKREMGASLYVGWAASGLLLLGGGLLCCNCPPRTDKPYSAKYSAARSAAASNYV

Sequence of UniProt O95484 (O95484 whole entry): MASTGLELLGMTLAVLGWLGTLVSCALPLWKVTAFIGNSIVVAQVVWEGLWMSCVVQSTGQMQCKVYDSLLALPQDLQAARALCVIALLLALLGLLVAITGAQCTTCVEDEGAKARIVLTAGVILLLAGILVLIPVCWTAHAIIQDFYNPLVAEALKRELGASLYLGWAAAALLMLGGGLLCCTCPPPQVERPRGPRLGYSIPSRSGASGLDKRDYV

Substance | Kd (claudin-9 (Homo sapiens)) | Kd (claudin-4 (Homo sapiens))
cCpE C-terminal domain (from UniProt P01558) | 5 nM | 3.4 nM
CpE (from UniProt P01558) | 5 nM | –
